Experimental data: article PMC4704858 (Science (New York, N.Y.), 2015)

Molecular target: the molecule itself
Experiment: crystal structure

B1: MvINS, an Insig homolog from Mycobacterium vanbaalenii PYR-1 (wild type) (natural protein)
chain: MRLRISEAVVLFLLGAVAALIGDHSHVVTGTTVYHTDAVPFVWSSPFWFPILVGAATASLAELRLHLPAPRDGVTARQALGGVAAVVGTYVTTALVHAFPVVPVTALVCAAAAITWCVLGDGPGAACGVVIAVIGPAVEIALVQLGVFAYHPDSDGLFGVAPFLAPLYFAFGVVAALLGELAVARRPQLGPPVCDTVSRGPGAG
stoichiometry N: 3
